Patent publication US20030119072A1 (SIGNAL PHARMACEUTICALS, published 2003)
One block for each binder: values may come before it. Where no end group is shown, it is not given here. The star is where a group is joined. Biotin = O=C1N[C@H]2[C@H](CS[C@H]2CCCCC(=O)*)N1; Ahx = NCCCCCC(=O)O

Columns and labels:
GST-WWP1.3 [1] = target: T1, GST-WWP1.3; assay: TRF (DELFIA) plate assay, GST-WW domain coated at 30 µg/mL, titrated with biotinylated peptide
T1 construct: Coated on polystyrene plates; also called WWP1 WW domain 3; not shown: glutathione S-transferase (GST) fusion partner

GST-WWP1.4 [2] = target: T2, GST-WWP1.4; assay: as above
T2 construct: Coated on polystyrene plates; also called WWP1 WW domain 4; not shown: glutathione S-transferase (GST) fusion partner

GST-WWP1.2 [3] = target: T3, GST-WWP1.2; assay: as above
T3 construct: Coated on polystyrene plates; also called second WW domain of WWP1; WWP1 WW domain 2; not shown: glutathione S-transferase (GST) fusion partner

GST-WWP1.3 [4] = target: T1, GST-WWP1.3; assay: TRF (DELFIA) plate assay, GST-WW domain coated at 0-10 µg/mL, biotinylated peptide 30 µM
Procedure: (§1) Each domain was individually expressed as a GST fusion protein. A TRF binding assay was used to evaluate interactions of PY motif peptides with these domains or GST alone. WW domains were bound to a 96-well polystyrene assay plate (Costar) overnight at 4° C. in a 200 mM carbonate buffer (Pierce, Rockford, Ill.) at different concentrations (0, 1, 3, 10 μg/mL). Unbound WW domain was washed away with distilled, deionized water and the plates were blocked with 1% BSA/carbonate buffer for 2 hours at room temperature. The plates were then washed with Tris/Tween buffer: 50 mM Tris pH 7.5, 100 mM NaCl, 1 mM EDTA, 1% BSA, 1 mM DTT, 0.1% Tween20, protease inhibitor cocktail (Boehringer-Mannheim).
(§2) These biotinylated peptides were solvated in Tris/Tween buffer and added to the assay plates (30 μM). The plates were incubated at 4° C. for varying amounts of capture time. The plates were then washed with PBS/0.1% Triton X100 and probed for 1 hour at room temperature with 1 μg/mL Europium-labeled streptavidin (DELFIA; Wallac Oy, Turku, Finland) in DELFIA Assay Buffer/0.1% Triton X100. The unbound Europium-labeled streptavidin was washed with PBS/0.1% Triton X100. Europium was released for time-resolved fluorescence measurements with the DELFIA Enhancement Buffer. Measurements were made on either the DELFIA 1234 or Victor fluorometers.

GST-WWP1.4 [5] = target: T2, GST-WWP1.4; assay: as above
Procedure: as §1, §2

GST-WWP1.2 [6] = target: T3, GST-WWP1.2; assay: as above
Procedure: as §1, §2

GST alone = target: T4, GST alone (UniProt P08515 1-218 = GST); assay: TRF (DELFIA) plate assay, GST coated, biotinylated peptide in solution
T4 construct: Control coated on plates in the TRF assay
Procedure: as §1, §2

GST-WWP1.1 [7] = target: T5, GST-WWP1.1; assay: TRF (DELFIA) plate assay, GST-WW domain coated at 30 µg/mL, titrated with biotinylated peptide
T5 construct: also called WWP1 WW domain 1; not shown: glutathione S-transferase (GST) fusion partner

GST-WWP1.3 [8] = target: T1, GST-WWP1.3; assay: TRF (DELFIA) plate assay, GST-WW domain coated, biotinylated peptide in solution
Procedure: as §1, §2

GST-WWP1.4 [9] = target: T2, GST-WWP1.4; assay: as above
Procedure: as §1, §2

GST-WWP1.1 [10] = target: T5, GST-WWP1.1; assay: as above
Procedure: as §1, §2

GST-WWP1.2 [11] = target: T3, GST-WWP1.2; assay: as above
Procedure: as §1, §2

GST-WWP1.2 [12] = target: T3, GST-WWP1.2; assay: TRF (DELFIA) plate assay, peptide titration of coated GST-WW domain, GST background subtracted; nonlinear least squares fit and Scatchard analysis
Procedure: FIGS. 8A-8B are graphs illustrating the binding of increasing concentrations of a Smad7 PY motif peptide to WWP1 WW domain peptides. In FIG. 8A, binding to four GST fusion peptides (GST-WWP1.1, GST-WWP1.2, GST-WWP1.3 and GST-WWP1.4) is shown, as well as binding to RSP5.2 WW domain. WW domain peptides were coated on polystyrene plates at the indicated receptor coating concentrations, and blocked with BSA. Biotinylated PY motif peptide was then added at the indicated concentrations. Binding was assessed using a time-resolved fluorescence assay and is shown as cps. FIG. 8B presents a Scatchard analysis of the Smad7 PY motif to WWP1.2 and WWP1.4, as indicated.
A detailed evaluation of the interactions of Smad 7 with the WWP1 WW domains and the second WW domain from RSP5 was undertaken. GST was used to correct for nonspecific background interactions. The peptide titration of the WW domains was evaluated by a nonlinear, least squares fit of the data and Scatchard analysis (FIGS. 8A-8B).

T3 sequence (chain, as listed by the source): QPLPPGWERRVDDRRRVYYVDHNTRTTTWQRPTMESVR
T5 sequence (chain, as listed by the source): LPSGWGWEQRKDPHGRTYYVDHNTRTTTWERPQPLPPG
T4 sequence (P08515 whole entry): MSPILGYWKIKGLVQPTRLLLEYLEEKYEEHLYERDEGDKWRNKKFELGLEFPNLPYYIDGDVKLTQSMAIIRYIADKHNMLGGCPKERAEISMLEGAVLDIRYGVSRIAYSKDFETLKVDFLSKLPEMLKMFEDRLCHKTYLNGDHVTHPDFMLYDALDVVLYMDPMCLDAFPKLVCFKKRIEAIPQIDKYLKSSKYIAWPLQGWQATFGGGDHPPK
T1 sequence (chain, as listed by the source): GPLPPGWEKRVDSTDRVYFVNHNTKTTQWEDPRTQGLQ

binding result (GST-WWP1.3 [1]): binds | binding result (GST-WWP1.4 [2]): binds | binding result (GST-WWP1.2 [3]): binds
B1: Smad6 PY motif peptide GPESPPPPYSRLSP (peptide)
peptide: GPESPPPPYSRLSP
modifications: not fully specified (N-terminus); also: biotin with C6 linker, end not given here
notes: also called Smad 6 peptide

binding result (GST-WWP1.3 [4]): binds | binding result (GST-WWP1.4 [5]): binds | binding result (GST-WWP1.2 [6]): binds | binding result (GST alone): no binding (tested: 30 µM peptide)
B2: WBP1 PY motif peptide, Biotin-Ahx-HPGTPPPPYTVGPG-CONH2 (peptide)
peptide: {Biotin-Ahx}-HPGTPPPPYTVGPG-NH2
SMILES: CC(C)[C@H](NC(=O)[C@@H](NC(=O)[C@H](Cc1ccc(O)cc1)NC(=O)[C@@H]1CCCN1C(=O)[C@@H]1CCCN1C(=O)[C@@H]1CCCN1C(=O)[C@@H]1CCCN1C(=O)[C@@H](NC(=O)CNC(=O)[C@@H]1CCCN1C(=O)[C@H](Cc1c[nH]cn1)NC(=O)CCCCCNC(=O)CCCC[C@@H]1SC[C@@H]2NC(=O)N[C@@H]21)[C@@H](C)O)[C@@H](C)O)C(=O)NCC(=O)N1CCC[C@H]1C(=O)NCC(N)=O
notes: also called WBP1 peptide

binding result (GST-WWP1.3 [1]): no binding | binding result (GST-WWP1.4 [2]): no binding | binding result (GST-WWP1.1 [7]): no binding | binding result (GST-WWP1.2 [3]): no binding
B3: Smad1 PY motif peptide PADTPPPAYLPPED (peptide)
peptide: {Biotin-Ahx}-PADTPPPAYLPPED-NH2
SMILES: CC(C)C[C@H](NC(=O)[C@H](Cc1ccc(O)cc1)NC(=O)[C@H](C)NC(=O)[C@@H]1CCCN1C(=O)[C@@H]1CCCN1C(=O)[C@@H]1CCCN1C(=O)[C@@H](NC(=O)[C@H](CC(=O)O)NC(=O)[C@H](C)NC(=O)[C@@H]1CCCN1C(=O)CCCCCNC(=O)CCCC[C@@H]1SC[C@@H]2NC(=O)N[C@@H]21)[C@@H](C)O)C(=O)N1CCC[C@H]1C(=O)N1CCC[C@H]1C(=O)N[C@@H](CCC(=O)O)C(=O)N[C@@H](CC(=O)O)C(N)=O
notes: also called Smad 1 PY peptide; Biotin-Ahx-PADTPPPAYLPPED-CONH2

binding result (GST-WWP1.3 [1]): no binding | binding result (GST-WWP1.4 [2]): no binding | binding result (GST-WWP1.1 [7]): no binding | binding result (GST-WWP1.2 [3]): no binding
B4: Smad2 PY motif peptide IPETPPPGYISEDG (peptide)
peptide: IPETPPPGYISEDG
modifications: not fully specified (N-terminus); also: biotin with C6 linker, end not given here
notes: also called Smad 2 peptide

binding result (GST-WWP1.3 [8]): no binding (tested: 30 µM peptide) | binding result (GST-WWP1.4 [9]): no binding (tested: 30 µM peptide) | binding result (GST-WWP1.1 [10]): no binding (tested: 30 µM peptide) | binding result (GST-WWP1.2 [11]): no binding (tested: 30 µM peptide) | binding result (GST alone): no binding (tested: 30 µM peptide)
B5: Nedd PY motif peptide, Biotin-Ahx-IPGTPPPNYDSLRL-CONH2 (peptide)
peptide: {Biotin-Ahx}-IPGTPPPNYDSLRL-NH2
SMILES: CC[C@H](C)[C@H](NC(=O)CCCCCNC(=O)CCCC[C@@H]1SC[C@@H]2NC(=O)N[C@@H]21)C(=O)N1CCC[C@H]1C(=O)NCC(=O)N[C@H](C(=O)N1CCC[C@H]1C(=O)N1CCC[C@H]1C(=O)N1CCC[C@H]1C(=O)N[C@@H](CC(N)=O)C(=O)N[C@@H](Cc1ccc(O)cc1)C(=O)N[C@@H](CC(=O)O)C(=O)N[C@@H](CO)C(=O)N[C@@H](CC(C)C)C(=O)N[C@@H](CCCNC(=N)N)C(=O)N[C@@H](CC(C)C)C(N)=O)[C@@H](C)O

binding result (GST-WWP1.3 [8]): no binding (tested: 30 µM peptide) | binding result (GST-WWP1.4 [9]): no binding (tested: 30 µM peptide) | binding result (GST-WWP1.1 [10]): no binding (tested: 30 µM peptide) | binding result (GST-WWP1.2 [11]): no binding (tested: 30 µM peptide) | binding result (GST alone): no binding (tested: 30 µM peptide)
B6: Mutant Nedd PY motif peptide, Biotin-Ahx-IPGTPPPNHDSLRL-CONH2 (peptide)
peptide: {Biotin-Ahx}-IPGTPPPNHDSLRL-NH2
SMILES: CC[C@H](C)[C@H](NC(=O)CCCCCNC(=O)CCCC[C@@H]1SC[C@@H]2NC(=O)N[C@@H]21)C(=O)N1CCC[C@H]1C(=O)NCC(=O)N[C@H](C(=O)N1CCC[C@H]1C(=O)N1CCC[C@H]1C(=O)N1CCC[C@H]1C(=O)N[C@@H](CC(N)=O)C(=O)N[C@@H](Cc1c[nH]cn1)C(=O)N[C@@H](CC(=O)O)C(=O)N[C@@H](CO)C(=O)N[C@@H](CC(C)C)C(=O)N[C@@H](CCCNC(=N)N)C(=O)N[C@@H](CC(C)C)C(N)=O)[C@@H](C)O

binding result (GST-WWP1.3 [1]): binds | binding result (GST-WWP1.4 [2]): binds | binding result (GST-WWP1.2 [3]): binds
B7: Smad5 PY motif peptide PADTPPPAYMPPDD (peptide)
peptide: PADTPPPAYMPPDD
modifications: not fully specified (N-terminus); also: biotin with C6 linker, end not given here
notes: also called Smad 5 peptide

Kd (GST-WWP1.2 [12]): 2400 nM
B8: Smad7 PY motif peptide ELESPPPPYSRYPM (peptide)
peptide: ELESPPPPYSRYPM
modifications: not fully specified (N-terminus); also: biotin with C6 linker, end not given here
notes: also called Smad 7 peptide

binding result (GST-WWP1.3 [1]): no binding | binding result (GST-WWP1.4 [2]): no binding | binding result (GST-WWP1.1 [7]): no binding | binding result (GST-WWP1.2 [3]): no binding
B9: Smad3 PY motif peptide AGLTPPPGYLSEDG (peptide)
peptide: AGLTPPPGYLSEDG
modifications: not fully specified (N-terminus); also: biotin with C6 linker, end not given here
notes: also called Smad 3 peptide
